# Source: the DeepSol protein solubility set
# Assay: soluble on expression in E. coli; label from the status in PepcDB or PDB records
row,Sequence,soluble on expression in E. coli
1,MAHHHHHHMFANLDEEKKARLRERILQAAAAPPPAATPARSNSDSDGEQEVPPQHTESTKHASEQLAINAQSTDIDIANIRLFTLDELDLNQLTECKTLSLRKNLIHELSAFPQHLAGRLVELDLFDNKIRKVRDFFDSAMVPDPESGSLSKKAVPHAFYSLTKLDLSYNQLRKITGLDSLGSTLKELYLVENKIKVIEGLDSFVHLELLELGGNRIREIGSGLSNLRSLQSLWLGKNKIHSIGDSLHNLRELRKLSLQANRLTSITAEAFKEGCNPYLAELYLSENGISTIENLPLHSLHLLDFSFNPISTINEAVINPTNMPELEEFWLTDGSISDWGEVKKFCGFANTLRTIYVERNPIEQDKRYRDKVYMNLPFVTQIDSWPVVNKDNLEGDRLIQRRAS,not soluble
2,MYNVIGVRFKKAGKIYYFDPNGFHIEHDSCVIVETVRGVEYGQVVIANKQVDEHDVVLPLRKVIRVADDRDLLIVEENKQEALSAFDICQKKVIEHGLDMKLVDVEFTFDRNKVIFYFTADGRVDFRELVKDLASIFKTRIELRQIGVRDEAKMLGGIGPCGRMLCCSTFLGDFEPVSIKMAKDQNLSLNPTKISGLCGRLMCCLKYENDEYETAKEQLPDIGEMITTANGPAKVVGLNILERVLQVELINREKVIEYTWEELLEEGVVSAQTTDLEHHHHHH,not soluble
3,MGSDKIHHHHHHMLYAYGARVWALPIFTHQVYLDKPTKPGDKTLSLATTGFDFYVGGRAVLMNGNKREMVDITGIEPDKLEIKRSLLNRFDTSTVVYPLRSAVLTDMPQLTRLSDEVATAQIRLQIHEHNGYAADIRHLPTYRGHPVLEPTSEWSEDITAQYLRLIKQLDNGTALPHYLDTAKNAFQLTNHRFLLDSIEAQHKLRQLFYYLRGRQKAIWVASSTSDLTLANDIVGKNLDIELVYYTTCLLKQAGRQDIRIECTDGSVHYRRILAATVSNNQTERLALDGEALNLKREQVAKISFLTLSRLESDTIDWVHHTDTVASVTVSFRGLRDELEV,not soluble
4,IDFHRGTQGEGRVEVELSQPGAVINVHSHGSRLLVEFMKAYLPPNLERRLNVLDFATPVQSVETVARDGNVQMIIEPKGRWEHTSWQTGTSFVVEIRPMAEAED,not soluble
5,SQTREDSVYLAKLAEQAERYEEMVENMKAVASSGQELSVEERNLLSVAYKNVIGARRASWRIVSSIEQKEESKEKSEHQVELIRSYRSKIETELTKISDDILSVLDSHLIPSATTGESKVFYYKMKGDYHRYLAEFSSGDAREKATNSSLEAYKTASEIATTELPPTHPIRLGLALNFSVFYYEIQNSPDKACHLAKQAFDDAIAELDTLSEESYKDSTLIMQLLRDNLTLWTSDISESGQEDQQQQQQQQQQQQQQQQQAPAEQTQGEPTK,soluble
6,MGSDKIHHHHHHMKTKVAAIYGKRDVRLRVFELPEITDNELLVSVISDSVCLSTWKAALLGSEHKRVPDDLENHPVITGHECAGVIVEVGKNLTGKYKKGQRFVLQPAMGLPSGYSAGYSYEYFGGNATYMIIPEIAINLGCVLPYHGSYFAAASLAEPMCCIIGAYHANYHTTQYVYEHRMGVKPGGNIALLACAGPMGIGAIDYAINGGIQPSRVVVVDIDDKRLAQVQKLLPVELAASKGIELVYVNTKGMSDPVQMLRALTGDAGFDDIFVYAAVPAVVEMADELLAEDGCLNFFAGPTDKNFKVPFNFYNVHYNSTHVVGTSGGSTDDMKEAIALSATGQLQPSFMVTHIGGLDAVPETVLNLPDIPGGKKLIYNGVTMPLTAIADFAEKGKTDPLFKELARLVEETHGIWNEQAEKYLLAQFGVDIGEAAQ,not soluble
7,MSLNDDYPVVLAAPTGRASKRLQESTGLEAMTIHRLIGWNQDTKPEDILENEINARLIIIDEMSMVDTWLFHQFLSAVPLDAQLIFVGDEDQLPSVGPGQVFKDLIESKAIPRVNLTEVYRQQDGSSIIELAHRMKLGQKIDITQRFHDRSFINCQANQIPTVVEKVVTSAVNKGYTMADIQVLAPMYKGNAGIKRLNQVLQDILNPKKKDTREIEFGDVVFRKGDKVLQLVNRPNDNIFNGDIGVIVGIFWAKENALNKDVLVVDFEGNEITFTKQDMMELTHAYCTSIHKSQGSEFPIVIMPIVKQYFRMLQRPILYTGLTRAKTSLVLLGDPEAFDIGLKTNGQARLTQLCTLLKNYFNSEGHHHHHH,not soluble
8,MPNQVLFCITKMRYEEKRIYHYLEESGLSIKIMLDSSNLDEVVAHNSDYCLCIVRVMSQHRAFRIAEYMEALGIPTLNSSRAIQICADKAIQALILANRDVIKQPHFSILRNYEDLSNFNGKMVVKPVSSSWGRGISLIENEDALTTWKISHQELDIQNQNLPYLIQEFIDKPNYDVRIVIINTKPVVAFKRVSANNWKTNTHLGATVVPIVIDDSINKIVTEIIKVVGPGIYGLDLMKNRQNEWIFCEINQNPEFAHSWKIHHVDVAEKIAQYVSSKVKVGQKNASTHLEHHHHHH,not soluble
9,MGSDKIHHHHHHMKNTELEQLINEKLNSAAISDYAPNGLQVEGKETVQKIVTGVTASQALLDEAVRLGADAVIVHHGYFWKGESPVIRGMKRNRLKTLLANDINLYGWHLPLDAHPELGNNAQLAALLGITVMGEIEPLVPWGELTMPVPGLELASWIEARLGRKPLWCGDTGPEVVQRVAWCTGGGQSFIDSAARFGVDAFITGEVSEQTIHSAREQGLHFYAAGHHATERGGIRALSEWLNENTDLDVTFIDIPNPA,not soluble
10,MRIGIVCPYSFDAPGGVQAHVLDLAEKFISQGHHVEVLGPASESTQLPDFVTRGGASLPIPYNGSVARLSFGPSTFIRARDFINRGQFDVLHIHEPNSPSFSMAALKVARGPIVATYHASSNRSLALKFALPFLRGQLEKIRGGIAVSEMARRWQVEMLGGDPILIPNGVETSQFELDKKPLWSGRIPEIVFLGRLDEHRKGLDILLRAVDRLDHEVRVTVIGGGTHPPAPRIDFVGRVSDEEKAEILGRADIYVAPNRGGESFGIVLVEAMAAGCVVVASDLEAFSAVCDAQSSQPSGILFRNGDADDLASTLRNVIENPKFGQELVTSGTQRAKEFDWDNVSKEIMRVYETVCDGTTVTAA,not soluble
11,MKRILIVTGQSGSGKSSALQVLEDLGYYCIDNLPLALLPEIVAKLDHENNLEQLALGVDVRSTRADMQEFDLVFEQLQKHGTVDVIYLTTQDQELIARFSASRRPHPLASRFKSLNECIQEEKQLLLPIQFRSTVHIDTTDKSVHDLKHTLLSKLGQSDKLILILQSFGYKHGIPLDADYVFDVRHLPNPHWDLELRRFSGLDEPVRRFLESSDQTNEMFDDIFHFLDKWLPVFAEGHRHYMTVSIGCTGGQHRSVYIVDRLKKALEAKWSIQVLHREMKHWS,not soluble
12,MSCYYYCKYCKEYKNKHHDCCKNTSKCHDNKDNLVRASAFRARNTVNQNVPANTFVKVLFQNEQFDLANEYNPATSIFMPKTKGVYSIIGTIGFFPNDPTLNYRARVEIRVNGNAAIAIDNDFFGPISFGNVVSVSTIVQLNAGDEVEIYAQSSIDGVLSPLEDGAHFEAARFPSPIKLEHHHHHH,not soluble
13,SSSKFQQVEQDVKAIEVSLSARIGVSVLDTQNGEYWDYNGNQRFPLTSTFKTIACAKLLYDAEQGKVNPNSTVEIKKADLVTYSPVIEKQVGQAITLDDACFATMTTSDNTAANIILSAVGGPKGVTDFLRQIGDKETRLDRIEPDLNEGKLGDLRDTTTPKAIASTLNKFLFGSALSEMNQKKLESWMVNNQVTGNLLRSVLPAGWNIADRSGAGGFGARSITAVVWSEHQAPIIVSIYLAQTQASMEERNDAIVKIGHSIFDVYTSQSR,soluble
14,MTGNVLNYYAGGNTARGFHNLYEENLKGLDRLFILKGGPGTGKSSLIKAIGREWIEKGYDIEFLHCSSDNKSVDGVIIPKLKVGIVDGTSPHVIEPKMPGVVEEYINLGIAWDSDKLRKQKLEIERFVSEASKAFQSAYARFKEALVIHDEWEKIYIDNIDFNKANELTNQLIQKLFADKSGRQSLVKHRFLGAATPKGAVDFVPNLTEGLPHRYFIKGRPGSGKSTMLKKLAKAAEEKGFEVEVYHCGFDPNSLDMVIVRELGFAIFDSTAPHEYFPSREGDEIIDMYALIVTPGTDEKYAKEIRDVSIQYKAKMNEAMSFLAKAKSIRDKLERIYIAAMDFSIVDAYKEEIQKEFERIAATVIEKQQ,not soluble
15,MEFDYVICEECGKEFMDSYLMDHFDLPTCDDCRDADDKHKLITKTEAKQEYLLKDCDLEKREPPLKFIVKKNPHHSQWGDMKLYLKLQIVKRSLEVWGSQEALEEAKEVRQ,soluble
16,MGSDKIHHHHHHMSGETLYQQLVNEWMELIRNGTVRPGERLPSVRKACAMHKVSPSTILQTYRMLEDRGLIEARPQSGFYVKSAASLPLPRMRRQSAAHHTGEVVDQIEAVMGVQSQADFIDLALASPRGSDFYPTTRFKHIMGRLLRQHPELTTDYPFPPGSERLRRQIAQRAVNWGCVLAADELVISNGCTEALQLALRAVCKPGDTVGVESPTYFALLPMLKDLGLAVIEIPTHPTSGLALDALELLLSEKRLNAVVAMPTVHNPLGSTMPPEAKRRLAQLVNDYQVPLIEDVPHAELFYGASTPDAVKAYDRDGWVLLCSSYSKTLAPGFRIGWIAPGRFLSEVRRLKFSSSLGQPALLEETLAEYLESGGYDHHLRLLRRHFISQMEKLRGAVAQHFPDGTRATLPSGGCLLWVELPSHADTMQLFRAALAERITVVPGAMYSAKGRYRNCLRLSCCYPWNEAYQRALIRVGELAGELAEGH,not soluble
17,GPGSMLKFRLPYTHKKIGFGDSSRKVNSSLIGPDGTVNYLRGDILLPIWTRPTSTEGRLVVPRGAHRVPYKVAQVENCFFFFNARVREQVHFNHILLPDENLDHHYDAAAEVNCLLKYLQFLHPELREASAAVLRREVKHISTSITAHLRVNFQDVVRRREYLLLKQARSGQSEEEGDESDNEAVDADTAPNCGAQLGSSWETFAKEIIQAASKERARVVWRRNVEETGSDVRSGFWVTTIMRQ,not soluble
18,MRPTDTSNFAPAEISKRKVRRVKANGRERARMHGLNNALDMLREYIPITTQHQKLSKIETLRLARNYIDALQRMLQTNEQPTPLEYAHTLANGLSQTTTNMLANLLQVQPRQLLPPSQFDIFSDPSHHQLHPSHPPPHSSFSSSSPSSSCSPPQYYYSPTQPSAAPLQGSCDPQYQQMYHQHSHQNTFNYSP,not soluble
19,MRKVKTDNSDLIEYVNTVKELKNHIPIEEYRNEYRKLRSDDIPLVKAQKFKSAHTEVRRLEKKRESLIEYFIDELNPISSSKANTSARSTGNLDLFNERVLYRKAISEKSDEEIVALVIKQRTEAAVEFQRSIEQSLEQLSRISSEFEPSNQKRRKMSL,soluble
20,MGHHHHHHSHMLDVYACHCTLCQKWSGGIAMYLEACGQPQLAPLSPEPPYFSSSSRGERYFCSGCGCPLWFRLTDTDRYFIPWTLLELNEVDRRRLILAAEIYTETQPAFWRLTGQYARLSGKEVEEMDSPCQLAH,not soluble
21,MLRAAGNLSKSMMKSQRRFLNLQEFQSKEILEKHGCSVQNFVVASNRKEAEEKWMSFGDHEYVVKAQILAGGRGKGKFINGTKGIGGVFITKEKDAALEAIDEMIGKRLVTKQTTSEGVRVDKVMIAEGVDIKRETYLAVLMDRESNGPVVVASPDGGMDIEAVAEKTPERIFKTPIDIQMGMTEGQSLKIAKDLQFEGKLIGVAAQEIKRLYDLFIAVDATQVEINPLVETADGRVFCVDAKMNFDDSAAYRQKEIFAYETFEEHDPREVDAHQFNLNYIGMDGNIACLVNGAGLAMATMDLIKLHGGEPANFLDVGGAVTEDAVFNAVRIITSDPRVKCVLINIFGGIVNCATIANGVVSAVNKIGLNVPMVVRLEGTNVDAAKQIMKKSGLKILTANNLDEAAAKAVSSLPK,not soluble
